Source: the supplement of paper PMC10724198
± gives the standard deviation of the averaged measurements.

System: Saccharomyces cerevisiae
Assay: protein stability index of tFT-peptide fusion (C-terminal peptide) (PSI (0-1 scale)); higher = more stable (slower turnover)
Settings: genetic background: wild type; temperature: 30 C
Experimental: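 Multiplexed protein stability (MPS) profiling in S. cerevisiae. Random 12-aa peptides (tFT-X12 library) are fused to the C-terminus of a sfGFP-mCherry tandem fluorescent timer, after mCherry and a GGGS linker. Cells are FACS-sorted into 8 mCherry/sfGFP bins and deep-sequenced. The protein stability index (PSI) is the read-weighted bin average, scaled from 0 (unstable) to 1 (stable). Only peptides with >10 reads are reported; cells were grown at 30 °C in SC-His with glucose.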
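Further: PSI is a weighted mean of sequencing reads over stability bins, variants kept only with over 10 reads, mCherry proximal and sfGFP distal, peptide attached via GGGS linker.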

| Sequence | protein stability index |
| --- | --- |
| QKFKHQNKLQSE | 0.6803 ± 0.0061 |
| PSFHASSLSWFS | 0.745 ± 0.039 |
| VDWVEAYVCVGV | 0.538 ± 0.024 |
| VPSPLPLPPLAP | 0.722 ± 0.036 |
| FLFWFLFFCSSR | 0.49 ± 0.022 |
| VGCQAIESRLHL | 0.737 ± 0.077 |
| PPTSHHHYHRQQ | 0.695 ± 0.053 |
| FKCWAGVRCGMV | 0.611 ± 0.013 |
| PPPPPPRPPSSP | 0.694 ± 0.022 |
| RIHQRTSLHKAH | 0.609 ± 0.13 |
| EKCCGAAVMARC | 0.561 ± 0.015 |
| ERLLLGLNRRLG | 0.643 ± 0.055 |
| QGAINSKRRPDQ | 0.603 ± 0.045 |
| QTQSNTRIERKK | 0.668 ± 0.057 |
| RPPRPAATGVQH | 0.683 ± 0.018 |
| LLPSRAPTSIPL | 0.686 ± 0.037 |
| PPFPLSPLPPPL | 0.71 ± 0.0047 |
| VVGCCVTKGGGA | 0.667 ± 0.048 |
| FDLTFPPPPLPF | 0.719 ± 0.052 |
| VLVYISDLKRSL | 0.689 ± 0.14 |
| VCGSGGGCWGGG | 0.622 ± 0.0096 |
| VLAPPPLLPPPY | 0.6843 ± 0.0021 |
| GGARGLLRGLLG | 0.755 ± 0.085 |
| PPLSPPLPPPPS | 0.7188 ± 0.0062 |
| FNIRDKVKRGAL | 0.666 ± 0.008 |

| Sequence | protein stability index |
| --- | --- |
| YVRCSVKCHILT | 0.609 ± 0.029 |
| PLTVPLPLALSP | 0.684 ± 0.047 |
| PRIIPRLARPQS | 0.69 ± 0.014 |
| KEKSSKRSGKTE | 0.644 ± 0.15 |
| PTTTPHPHIATP | 0.711 ± 0.14 |
| GKRKEKLEQTAQ | 0.688 ± 0.027 |
| IGWFGRCGCCCW | 0.714 ± 0.2 |
| LDFSAWRYGRSW | 0.83 ± 0.038 |
| RPAESPPAFYNR | 0.774 ± 0.062 |
| QKENTKEKKKRE | 0.686 ± 0.015 |
| SGGQDSFVLRLG | 0.6687 ± 0.0015 |
| RGVVRYVNGSRG | 0.568 ± 0.083 |
| SPSTPPPPSPPV | 0.647 ± 0.017 |
| GSVFVFWESWRC | 0.6803 ± 0.0029 |
| FSFNGMTRNCLR | 0.715 ± 0.014 |
| HPVPSPSLRPPP | 0.716 ± 0.072 |
| QYVYIPGLSNLC | 0.632 ± 0.019 |
| LVCYHLSLPSVR | 0.675 ± 0.052 |
| ERGAEGKKEPEK | 0.6534 ± 0.0061 |
| FRRARRLRWFGG | 0.637 ± 0.03 |
| DTSGNQLQDPDI | 0.706 ± 0.029 |
| LALDPVNLVTSL | 0.682 ± 0.051 |
| TNALVGEWVGLG | 0.795 ± 0.11 |
| SPLLPPRSPPLP | 0.752 ± 0.032 |
| MSKSLQTSSHKT | 0.663 ± 0.018 |

| Sequence | protein stability index |
| --- | --- |
| PSPPHLHLHLAP | 0.665 ± 0.013 |
| ASLPPPFTMLLL | 0.686 ± 0.051 |
| REEKRREEEGKK | 0.701 ± 0.028 |
| LPPPTSFPSFPP | 0.724 ± 0.027 |
| LPHTRPLPPRVD | 0.704 ± 0.015 |
| WGRRCRFIFRGM | 0.654 ± 0.074 |
| NKKKKKKSTKRN | 0.691 ± 0.044 |
| SYLMVATRFGEN | 0.741 ± 0.067 |
| IRMEYVNTVINK | 0.642 ± 0.049 |
| WPSTLHRGLSLP | 0.702 ± 0.074 |
| VFSARVVGGVLF | 0.681 ± 0.011 |
| GVGGGEAGVIGR | 0.769 ± 0.041 |
| VSSVVTTSAIKR | 0.715 ± 0.027 |
| PRLSSPAATSPP | 0.709 ± 0.012 |
| FESRGEPPDIQV | 0.668 ± 0.049 |
| TGTATGTEGANY | 0.698 ± 0.022 |
| MTWQSASGNRVA | 0.699 ± 0.056 |
| EPPLPEPPLSRS | 0.705 ± 0.023 |
| QTTKPRDPPLHP | 0.787 ± 0.13 |
| GVWGGGGGWGVA | 0.688 ± 0.0096 |
| CGRCVRGGRPWG | 0.577 ± 0.012 |
| ERGRKGGAGARD | 0.6439 ± 0.0047 |
| LLPPPLPPLHSS | 0.6828 ± 0.0054 |
| PLPPLPPPTAPP | 0.693 ± 0.029 |
| GVLKQGSLPCRD | 0.706 ± 0.14 |

| Sequence | protein stability index |
| --- | --- |
| HPPLSPPSALFL | 0.719 ± 0.069 |
| GKMLCADRSLEY | 0.701 ± 0.11 |
| GVAEFDGWFCLG | 0.7329 ± 0.0022 |
| PPSPPILPPRPP | 0.687 ± 0.015 |
| PPPPLPRPPPPP | 0.615 ± 0.061 |
| PVGWVEASLSPG | 0.721 ± 0.027 |
| SPPLLHLSNSRH | 0.654 ± 0.059 |
| TQYINTAHKELK | 0.6677 ± 0.00083 |
| IPRRSSIPDKTP | 0.718 ± 0.045 |
| RPTSTHQPASPS | 0.684 ± 0.025 |
| RVSGILQHFTSA | 0.7309 ± 0.0058 |
| SSPPPPPPPLPL | 0.705 ± 0.023 |
| SFSRLYGCVPRD | 0.678 ± 0.0098 |
| GCVVSGCGAGVV | 0.5755 ± 0.0057 |
| VCRGRGGEGIGW | 0.721 ± 0.096 |
| ECGRWLGRGVRG | 0.735 ± 0.045 |
| SRPPILAHPTPS | 0.707 ± 0.049 |
| INGTEYVVGRKA | 0.686 ± 0.0097 |
| GRYYVPGLAALV | 0.653 ± 0.0085 |
| PSPAPSGPAHHP | 0.667 ± 0.05 |
| NRSERIKDNRGK | 0.723 ± 0.025 |
| ITVWVLSDGIGV | 0.5619 ± 0.002 |
| DVFLFPGVYFRM | 0.594 ± 0.012 |
